Measured values from doi:10.1101/2022.07.21.500812 (bioRxiv, 2022).

Molecular target: human GPC3 residues 32-483 (hGPC3^core) (human, UniProt P51654 32-483, N-linked glycans at N124 and N241)
Experiment: SPR

human GPC3 residues 32-483 (hGPC3^core), sequence (P51654 32-483): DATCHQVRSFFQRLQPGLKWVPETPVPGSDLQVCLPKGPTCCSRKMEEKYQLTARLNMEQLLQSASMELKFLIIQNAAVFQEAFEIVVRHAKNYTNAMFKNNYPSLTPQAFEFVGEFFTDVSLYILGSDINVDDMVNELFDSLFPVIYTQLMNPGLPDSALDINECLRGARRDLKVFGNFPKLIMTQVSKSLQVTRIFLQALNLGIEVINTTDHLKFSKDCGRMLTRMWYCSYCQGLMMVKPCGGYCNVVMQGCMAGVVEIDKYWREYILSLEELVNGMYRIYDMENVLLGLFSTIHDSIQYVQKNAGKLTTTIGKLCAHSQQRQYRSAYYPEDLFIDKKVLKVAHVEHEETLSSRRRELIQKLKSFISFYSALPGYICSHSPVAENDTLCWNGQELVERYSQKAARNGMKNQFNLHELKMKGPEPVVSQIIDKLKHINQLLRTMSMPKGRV

B1: mouse Unc5A ectodomain (mUnc5A^ecto, residues 1-359) (domain or fragment)
chain: not shown
- binding result: binds
